Test results taken from the nanobody polyreactivity screen of Harvey et al. (2022).

Assay: yeast display, Sf9 membrane polyspecificity reagent, FACS + sequencing; frameworks hold sequencing errors
Procedure, shortened: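 Using colony PCR, genes from sorted yeast display clones were amplified, then sequenced on MiSeq at 2 × 250 and filtered by CDR length. The clones had been stained with 10% biotinylated, detergent-solubilized Sf9 membrane reagent for 1 hour at 4 °C and sorted by FACS into low and high (top ~1%) gates on anti-HA and streptavidin fluorescence. Polyreactivity labels come from the gate of origin.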

| Sequence | polyreactivity (PSR sort gate) |
| --- | --- |
| QVQLVESGGGLVQAGGSLRLSCAASGRTFGRYTMGWYRQAPGKERELVAAINWSGGRTYYADSVKGRFTISRDNAKNTVYLQMNSLKPEDTAVYYCNAVFANTSPEYEYWGQGTQVTVSS | high polyreactivity |
| QVQLVESGGGLVQAGGSLRLSCAASGRTFGRYVMGWYRQAPGKERQLVARIRGSTTSTYYADSVKGRFTISRDNAKNTVYLQMNSLKPEDTAVYYCAASYSPFASSYGYDYWGQGTQVTVSS | high polyreactivity |
| QVQLVESGGGLVQAGGSLRLSCAASGRTFGSKALAWYRPAPGKERELVAAITGGGSTYYADSVKGRFTISRDNAKNTVYLQMNSLKPEDTAVYYCAARGTSGWYRYGYWGQGTQVTVSS | high polyreactivity |
| QVQLVESGGGLVQAGGSLRLSCAASGRTFGSYTMGWYRQAPGKERELVAAITSGGRTNYADSVKGRFTLSRDNAKNTVYLQMTSLKPEATAVYYCAAGLRGGRYRYFAYDYWGQGTQVTVSS | high polyreactivity |
| QVQLVESGGGLVQAGGSLRLSCAASGRTFGSYVMGWYRQAPGKERELVAAISWSSGITYYADSVKGRFTISRDNAKNTVYLQMNSLKPEDTAVYYCAARIWDSRAYYYWGQGTQVTVSS | high polyreactivity |
| QVQLVESGGGLVQAGGSLRLSCAASGRTFGTNAMGWYRQAPGKERELVAAIRRGGSRTYNADSVKGRFTISRDIAKNTVYLQMNSLKPEDTAVYYCAVDYYPYEVSYVRMDYWGQCTQVTVSS | low polyreactivity |
| QVQLVESGGGLVQAGGSLRLSCAASGRTFGTNAMGWYRQAPGKERELVAAISWRGTSTYYADSVKGRFTISRDNAKNTVYLQMNSLKPEDTAVYYCAADFSYTSYATRYQGDYWGQGTQVTVSS | low polyreactivity |
| QVQLVESGGGLVQAGGSLRLSCAASGRTFGTYAMGWYRQAPGKERELVAAINFSGGNTYYADSVKGLFTITRDNAKNTVYLQMNSLKPEDTAVYYCAKRGHSYSLDLYYIVTYDYWGQGTQVTVSS | low polyreactivity |
| QVQLVESGGGLVQAGGSLRLSCAASGRTFGVKAMGWYRQAPGKERELVAAITSGGTTNYADSVKGRFTISRDNAKNTFYLQMNSLKPEDTAVYYCAARSYYPRYGYWGQGTQVTVSS | high polyreactivity |
| QVQLVESGGGLVQAGGSLRLSCAASGRTFGVNAMGWYRQAPGKERELVAAIDSSGGSTYYADSVKGRFTISRDNAKNTVYLQMNSLKPEDTAVYYCAGPYRPDYDYWGQGTQVTVSS | high polyreactivity |
| QVQLVESGGGLVQAGGSLRLSCAASGRTFGVNAMGWYRQAPGKERELVAAISRSTGSTYYADSVKGRFTISRDNAKNTVYLQMNSLKPEDTAVYYCARDVYYRGYKYGYWGQGTQVTVSS | high polyreactivity |
| QVQLVESGGGLVQAGGSLRLSCAASGRTFGVNAMGWYRQAPGKERELVARNRVSGGRTYYADSVKGRFTISRDNAKNTVYLQMNSLKPEDTAVYYFNAGYTYNRVIWPYYYWGQGTQVTVSS | high polyreactivity |
| QVQLVESGGGLVQAGGSLRLSCAASGRTFGVYAMGWNRQPPGKERELVATITSVDRTTYADSVKGRFTFSRDNAKITVYLQMNSLKPEDTAVYYCAAVGRWPRYYYWGQGTQVTVSS | high polyreactivity |
| QVQLVESGGGLVQAGGSLRLSCAASGRTFGVYAMGWYRQAPGKERELVAAITGRGGSTYYADSVKGRFTISRDNAKNTVYLQMNSLKAEDTALYYCNAELYEYQSWDDYWGQGTQVTVSS | low polyreactivity |
| QVQLVESGGGLVQAGGSLRLSCAASGRTFGVYAMGWYRQAPGKERELVATIRTTGSTNYADSVKGRFTISRDNAKNTVYLQMNSLKTEDTAVYYCGARQRQSKYYPYTTFTYDYWGQGTQVTVSS | high polyreactivity |
| QVQLVESGGGLVQAGGSLRLSCAASGRTFGVYAMGWYRQAPGKESELVAAISRLAGNTYYADSVKGRFTISRDNAKNTVYLQMNSLKPEDTAVYYCAADFSRQYGYWGQGTQVTVSS | high polyreactivity |
| QVQLVESGGGLVQAGGSLRLSCAASGRTFGVYVKGWYRQAPGKERELVAAIDDSGGSTYYADSVKGRFTISRDNAKNTVYLQMNSLKPEDTAVYYCAKTKTQYLTSEIRFDYWGQGTQVTVSS | low polyreactivity |
| QVQLVESGGGLVQAGGSLRLSCAASGRTFGWYAMGWYRQAPGKERELVAAIRSSGGRTHYADSVKGRFTISRDNAKNTVYLQMNSLKPEDTAVYYCAARYSAAYYWGQGTQVTVSS | high polyreactivity |
| QVQLVESGGGLVQAGGSLRLSCAASGRTFGWYAMGWYRQAPGKERELVAAISLSGGSTYYADSVKGRFTISRDNAKNTVYLQMNSLKPEDTAVYYCNALILPTKMGYWGQGTQVTVSS | low polyreactivity |
| QVQLVESGGGLVQAGGSLRLSCAASGRTFGWYAMGWYRQAPGKERELVATITRGGSTYYADSVKGRFTISRDNAKNTVYLQMNSLKPEDTAVYYCNARRYLWLRRYDYWGQGTQVTVSS | high polyreactivity |
| QVQLVESGGGLVQAGGSLRLSCAASGRTFGYNALGWYRQAPGKERELVAAITRGGITHYADSVKGRFTISRDNAKNTVYIQKNSLKPEDTAGYYCAKRGPYYTDDEYYWGQGTQVTVSS | low polyreactivity |
| QVQLVESGGGLVQAGGSLRLSCAASGRTFGYNAMGWYIQAPGKERELVAAINWSGASTYYADYVKGRFTISRDNAKNTVYLQMNSLKPEDTAVYYCAADYSYIYGFDYWGQGTQVTVSS | low polyreactivity |

| Sequence | polyreactivity (PSR sort gate) |
| --- | --- |
| QVQLVESGGGLVQAGGSLRLSCAASGRTFGYNAMGWYRQAAGKERELVAAISSSGGSTYYADSVKGRFTISRDNAKNTVYLQMNSLKPEDTAVYYCATQGYSWAHGSDYWGQGTQVTVSS | low polyreactivity |
| QVQLVESGGGLVQAGGSLRLSCAASGRTFGYNAMGWYRQAPGKERELVAAINWSGASTYYADSVKGRFTISRDNAKNTVYLQMNSLKPEDTAVYYCAADYSYIYGFDYWGQGTQVTLSS | low polyreactivity |
| QVQLVESGGGLVQAGGSLRLSCAASGRTFGYNAMGWYRQAPGKERELVATISWGGGSTYYADSVKGRFTISRDNAKNTVYLQMNSLKPEDTAVYYCNKVHYGRRHSYSGAIYGEDYWGQGTQVTVSS | high polyreactivity |
| QVQLVESGGGLVQAGGSLRLSCAASGRTFGYNAMGWYRQAPGKERELVAVITSSGGRTYADSVKGRFTISRDNAKNTVYLQMNSLKPEDTAVYYCATRTRLAQYSRGRYRYDYWGQGTQVTVSS | high polyreactivity |
| QVQLVESGGGLVQAGGSLRLSCAASGRTFGYNAMGWYSQAPGKETELVAAINWSDASTYYADSVKGRFTISRDNAKNTVSLQMNSLKPEDTAVYYCAADYSYIYGFDYWGQGTLVTVSS | low polyreactivity |
| QVQLVESGGGLVQAGGSLRLSCAASGRTFGYYAMGWYRQAPGKEREFVAAISSSGGSTYYADSVKGRFTISRDNAKNTVYLQMNSLKPEDTAVYYCAARRNYFYGYYYWGQGTQVTVSS | high polyreactivity |
| QVQLVESGGGLVQAGGSLRLSCAASGRTFGYYAMGWYRQAPGKERELVAAISNSGGRTYYADSLKGRFTISRDNAKNTVYLQMNSLKPEDTAVYYCAAVVSYRFDYWGQGTQVTVSS | high polyreactivity |
| QVQLVESGGGLVQAGGSLRLSCAASGRTFGYYAMGWYRQAPGKERELVAAISSRGGSTYYADSVKGRFTISRDNAKNTVYLQMNSLKPEDTAVYYCNTRWTNIHPRYDYWGQGTQVTVSS | high polyreactivity |
| QVQLVESGGGLVQAGGSLRLSCAASGRTFGYYAMGWYRQAPGKERELVATITWSGGSTYYADSVKGRFTISRDNAKNTVYLQMNSLKPEDTAVYYCATDALYTYGYDYWGQGTQVTVSS | low polyreactivity |
| QVQLVESGGGLVQAGGSLRLSCAASGRTFGYYAMGWYRQAPGTERELVASISSRGGSSYYADSVKGRFTISRDNAKNTVYLQMNSLKPEDTAVYYCNAPSWSGSRTYYYWGQGTQVTVSS | high polyreactivity |
| QVQLVESGGGLVQAGGSLRLSCAASGRTFGYYAMGWYRQSPGKERELVAAITSGGRTYYADSVKGRFTISRDNAKNTVYLQMNSLKPEDTAVYYCNAPARWGSRVAWYEYWGQGTQVSVSS | high polyreactivity |
| QVQLVESGGGLVQAGGSLRLSCAASGRTFGYYVMGWYRQAPGKERELVAAITYTGGSTYYADSVKGRFTISRDNAKNTVYLQMNSLKPEDTAVYYCATSTYKPTYGYDYWGKGTQVTVSS | low polyreactivity |
| QVQLVESGGGLVQAGGSLRLSCAASGRTFHGYAMGWYRQAPGKERELVAAINASGGRTYYADSVKGRFTISRDNAKNTVYLQMNRLKPEDTAVYYCAVYSASFRYGLAYDYWGQGTQVTVSS | high polyreactivity |
| QVQLVESGGGLVQAGGSLRLSCAASGRTFHIYAMGWYRQAPGKERELVAAIRGRSGSTYYADSVKGRFTISRDNAKNTVYLQMNSLKPEDTAVYYCAAEYWGRYGAPEYDYWGQGTQVTVSS | high polyreactivity |
| QVQLVESGGGLVQAGGSLRLSCAASGRTFHRYVMGWYRQAPGKERELVAAISKSGGRTYYADSVKGRFTISRDNAKNTVYLQMNSLKPEDTAVYYYNARTAAGALYDYWGQGTQVTVSS | high polyreactivity |
| QVQLVESGGGLVQAGGSLRLSCAASGRTFHVYAMGWYRPAPGKERELVATITDGSTNYADSVKGRFTISRDNAKNTVYLQMNSLKPEDSAVYYCATVRAWIPSGDYEYWGQGTQVTVSS | low polyreactivity |
| QVQLVESGGGLVQAGGSLRLSCAASGRTFHYNAMGWYRQAPGKERELVAAITRSGGSTYYADSVKGRFTISRDNAKNTVYLQMNSLKPEDTAVYYCAAGWRSVSVRYYGPSDYWGQGTQVTVSS | low polyreactivity |
| QVQLVESGGGLVQAGGSLRLSCAASGRTFHYYAMGWYRQAPGKERELVAAISVSGGSTYYADSVKGRFTISRDNAKNTVYLQMNSLKPEDTAVYYCAADDYLVEHDYWGQGTQVTVSS | low polyreactivity |
| QVQLVESGGGLVQAGGSLRLSCAASGRTFHYYAMGWYRQAPGKERELVAAITRGGNTYYADSVKGRFTISRDNAKNTVYLQMNSLKPEDTAVYYCAKDNHFEAYRYDYWGQGTQVTVSS | low polyreactivity |
| QVQLVESGGGLVQAGGSLRLSCAASGRTFHYYVRGWSRQAPGKERELVAAISRSGGNTYYADSVKGRFTISRDNAKNTVYLQMNSLKPEDTAVNYCAAALSAYVKWDYYYWGQGTQVTVSS | low polyreactivity |
| QVQLVESGGGLVQAGGSLRLSCAASGRTFIAYAMGWYRPAPGKERALVAAITSSGGSTYYADSVKGRFTISRDNAKNTVYLQMNSLKPEDTAVFYCATDIYESPYFYYSYYYWGQGTQVTVSS | low polyreactivity |
